Ends that are not written are not given here. * marks the point of attachment. Biotin = O=C1N[C@H]2[C@H](CS[C@H]2CCCCC(=O)*)N1
B1: GST-Cdc20^111-138 (domain or fragment, UniProt Q12834 111-138, looked up)
chain: EHQKAWALNLNGFDVEEAKILRLSGKPQ
notes: Immobilised on GSH-agarose beads
B2: synthetic biotin-Cdc20^111-138 (peptide, UniProt Q12834 111-138, looked up)
peptide: Biotin-EHQKAWALNLNGFDVEEAKILRLSGKPQ
notes: Cdc20, residues 111-138; Held on the neutravidin-coated surface of the flow chamber through its biotin; also called biotinylated Cdc20 peptide; biotin-Cdc20 peptide^111-138; source: synthetic peptide

Legend:
Details in all cases: both partners purified
Full-length Mad2^F141A = biological target: T1, Full-length Mad2^F141A (UniProt Q13257 1-205, F141A); assay: pull-down; GST-Cdc20 111-138 (1 uM) immobilised on GSH-agarose beads; 1 uM Mad2 for 24 h at room temperature, or 2 uM Mad2 as a time course; SDS-PAGE and densitometry
T1 construct: Mad2, full length, Phe141 replaced by Ala; purified as a monomer in the open (O-Mad2) conformation; Unlabelled form; source: purified as described [14], final size-exclusion chromatography on Superdex-75 in PBS
T1 sequence (Q13257 whole entry F141A): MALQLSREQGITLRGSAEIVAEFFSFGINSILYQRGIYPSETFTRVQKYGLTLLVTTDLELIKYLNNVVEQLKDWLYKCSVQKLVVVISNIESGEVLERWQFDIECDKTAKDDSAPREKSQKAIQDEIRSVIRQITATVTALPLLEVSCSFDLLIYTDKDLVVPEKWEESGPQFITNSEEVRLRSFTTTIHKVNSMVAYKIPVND

Full-length Mad2^wt = biological target: T2, Full-length Mad2^wt (UniProt Q13257 1-205); assay: as above
T2 construct: Mad2, wild type, full length; purified as a monomer in the open (O-Mad2) conformation; Unlabelled form; also called wild-type Mad2; O-Mad2; source: purified as described [14], final size-exclusion chromatography on Superdex-75 in PBS
T2 sequence (Q13257 whole entry): as the sequence (Q13257 whole entry F141A) above, with A141F counted along it

[1] = biological target: T3, Alexa Fluor 488-labelled Mad2^F141A (UniProt Q13257 1-205, F141A, Alexa 488 C5 maleimide, covalent label (residue not stated)); assay: real-time confocal fluorescence on a surface in a flow chamber; biotin-Cdc20 111-138 (~1 uM) held on a neutravidin-coated chamber surface; Alexa-488-Mad2 injected at 1-8 uM in PBS; fluorescence on the surface followed; constants from a global fit of rate equations
T3 construct: Mad2, full length, Phe141 replaced by Ala; monomeric O-Mad2 after labelling; Labelled form of m2; also called Alexa-Mad2^F141A; Alexa-488-Mad2^F141A; source: purified as described [14], labelled with Alexa 488 C5 maleimide, separated from free dye on Superdex-75
T3 sequence (Q13257 whole entry F141A): as the sequence (Q13257 whole entry F141A) above

[2] = biological target: T3, Alexa Fluor 488-labelled Mad2^F141A; assay: real-time confocal fluorescence in a flow chamber, signal in solution; same chamber with surface-held biotin-Cdc20 111-138; loss of Alexa-Mad2 fluorescence from solution followed; parameters of the curves laid over the data, [Cdc20T] = 0.9 uM

| Binder | binding result (Full-length Mad2^F141A) | binding result (Full-length Mad2^wt) | Kd [1] | koff [1] | kon [1] | Kd [2] | kon [2] |
| --- | --- | --- | --- | --- | --- | --- | --- |
| B1 | binds | binds | – | – | – | – | – |
| B2 | – | – | 100 nM | 4.83e-06 s⁻¹ | 48.3 M⁻¹ s⁻¹ | 240 nM | 27 M⁻¹ s⁻¹ |

— PMC2621267, “The Influence of Catalysis on Mad2 Activation Dynamics” (PLoS Biology, 2009)
